Target: ΔEed (Eed residues 77 to 441) (UniProt O75530)
Assay: ITC; ΔEed (residues 77 to 441) with methylated peptides; conditions in the Supplemental Experimental Procedures

Sequence of ΔEed (Eed residues 77 to 441) (O75530 77-441, stated change not applied): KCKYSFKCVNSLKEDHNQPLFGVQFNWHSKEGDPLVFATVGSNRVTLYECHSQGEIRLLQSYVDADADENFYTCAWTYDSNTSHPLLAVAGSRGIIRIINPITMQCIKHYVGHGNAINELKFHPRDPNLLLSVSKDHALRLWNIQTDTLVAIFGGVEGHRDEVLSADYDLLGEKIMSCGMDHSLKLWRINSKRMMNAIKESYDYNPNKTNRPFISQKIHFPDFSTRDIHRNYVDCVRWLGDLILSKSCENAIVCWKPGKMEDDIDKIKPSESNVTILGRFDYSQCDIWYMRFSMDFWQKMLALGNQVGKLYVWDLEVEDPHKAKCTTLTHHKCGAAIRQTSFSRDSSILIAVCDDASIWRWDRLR

Kd: 3 µM
fold affinity against the H3K27me3 peptide: 10 fold
Substance: Jarid2-K116me3 peptide
